The values below come from publication PMC6713926, “Structural Basis for Properdin Oligomerization and Convertase Stimulation in the Human Complement System” (Frontiers in Immunology, 2019).

The target in this experiment is T1, Biotinylated C3b (human, UniProt P01024 23-667; P01024 749-1663, biotin (Maleimide-PEG2-Biotin)).
T1 construct: complement C3, human, beta chain; complement C3, human, alpha' chain of C3b; also called biotin-C3b; immobilized C3b; source: made from plasma C3 by trypsin cleavage in the presence of Maleimide-PEG2-Biotin, purified by cation exchange
The experiment can be described thus: BLI; biotinylated C3b on streptavidin sensors; FPht variants at 100 to 1.56 μg/mL, 60 s steps; 30°C; 20 mM MES pH 6.0, 100 mM NaCl, 0.05% Tween, 1 mg/mL BSA; steady state 1:1 fit (for WT also kinetic analysis). The following applies: both partners purified. For orientation: Biolayer interferometry detects binding as a change in optical thickness at a sensor tip.

T1 sequence (P01024 23-667, chain 1 of 2): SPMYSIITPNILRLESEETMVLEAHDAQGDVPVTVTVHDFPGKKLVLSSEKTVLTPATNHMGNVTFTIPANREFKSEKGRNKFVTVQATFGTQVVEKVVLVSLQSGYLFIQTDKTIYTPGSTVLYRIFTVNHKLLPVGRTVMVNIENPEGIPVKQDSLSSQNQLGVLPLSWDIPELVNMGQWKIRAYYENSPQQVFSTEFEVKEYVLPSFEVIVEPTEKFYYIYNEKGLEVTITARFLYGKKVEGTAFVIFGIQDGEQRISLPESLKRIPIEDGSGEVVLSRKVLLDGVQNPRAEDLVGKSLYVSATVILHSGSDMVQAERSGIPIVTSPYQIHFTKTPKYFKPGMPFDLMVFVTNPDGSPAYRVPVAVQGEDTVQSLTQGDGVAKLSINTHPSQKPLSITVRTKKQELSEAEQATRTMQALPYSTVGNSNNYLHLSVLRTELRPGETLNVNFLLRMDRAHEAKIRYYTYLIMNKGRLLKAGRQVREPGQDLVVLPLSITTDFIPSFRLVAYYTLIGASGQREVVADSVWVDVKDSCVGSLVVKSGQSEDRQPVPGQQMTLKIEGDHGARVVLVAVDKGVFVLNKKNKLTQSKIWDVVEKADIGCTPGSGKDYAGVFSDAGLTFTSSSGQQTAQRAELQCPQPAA
T1 sequence (P01024 749-1663, chain 2 of 2): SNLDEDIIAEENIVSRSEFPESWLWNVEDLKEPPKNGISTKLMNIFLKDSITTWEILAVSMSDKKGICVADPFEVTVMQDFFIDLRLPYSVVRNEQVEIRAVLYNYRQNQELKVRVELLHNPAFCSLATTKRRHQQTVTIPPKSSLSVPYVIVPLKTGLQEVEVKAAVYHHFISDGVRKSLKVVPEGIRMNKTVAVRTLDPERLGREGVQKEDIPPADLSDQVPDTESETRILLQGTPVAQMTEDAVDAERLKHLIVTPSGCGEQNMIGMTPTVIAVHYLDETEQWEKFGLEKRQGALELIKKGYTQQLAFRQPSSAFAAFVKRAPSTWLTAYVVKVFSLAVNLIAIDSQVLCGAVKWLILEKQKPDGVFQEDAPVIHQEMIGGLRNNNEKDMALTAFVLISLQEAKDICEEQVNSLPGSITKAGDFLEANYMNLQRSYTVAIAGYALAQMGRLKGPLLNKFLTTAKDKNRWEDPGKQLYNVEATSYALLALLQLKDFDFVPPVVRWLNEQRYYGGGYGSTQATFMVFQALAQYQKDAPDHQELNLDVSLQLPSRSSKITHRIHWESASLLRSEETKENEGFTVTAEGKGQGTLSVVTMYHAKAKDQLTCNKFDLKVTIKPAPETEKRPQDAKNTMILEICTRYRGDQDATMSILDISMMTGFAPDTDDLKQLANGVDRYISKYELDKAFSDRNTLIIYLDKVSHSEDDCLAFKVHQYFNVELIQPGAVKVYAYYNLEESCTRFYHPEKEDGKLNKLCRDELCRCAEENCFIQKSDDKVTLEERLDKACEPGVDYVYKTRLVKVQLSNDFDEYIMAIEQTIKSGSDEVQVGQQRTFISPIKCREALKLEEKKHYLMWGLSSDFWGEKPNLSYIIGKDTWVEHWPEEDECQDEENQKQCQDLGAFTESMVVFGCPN

B1: FPht R353A (complex)
chain 1: DPVLCFTQYEESSGKCKGLLGGGVSVEDCCLNTAFAYQKRSGGLCQPCRSPRWSLWSTWAPCSVTCSEGSQLRYRRCVGWNGQCSGKVAPGTLEWQLQACEDQQCCPEMGGWSGWGPWEPCSVTCSKGTRTRRRACNHPAPKCGGHCPGQAQESEACDTQQVCPTHGAWATWGPWTPCSASCHGGPHEPKETRSRKCSAPEPSQKPPGKPCPGLAYEQRRCTGLPPCP
chain 2: VAGGWGPWGPVSPCPVTCGLGQTMEQRTCNHPVPQHGGPFCAGDATRTHICNTAVPCPVDGEWDSWGEWSPCIRRNMKSISCQEIPGQQSRGRTCRGAKFDGHRCAGQQQDIRHCYSIQHCPLKGSWSEWSTWGLCMPPCGPNPTRARQRLCTPLLPKYPPTVSMVEGQGEKNVTFWGRPLPRCEELQGQKLVVEEKRPCLHVPACKDPEEEEL
What is called Kd is the constant that tells how readily two partners part at equilibrium. B1 gave a Kd of 1000 nM.
